# Source: patent US20130336947, “PEPTIDES AND USES” (FUNDACIÓ PRIVADA CENTRE DE REGULACIÓ GENÓMICA, published 2013)
# B1: (GCA)x6 probe (dsDNA)
# DNA 1: GCAGCAGCAGCAGCAGCA
# DNA 2: TGCTGCTGCTGCTGCTGC
# B2: (GCA-GCT)x3 alternate probe (dsDNA)
# DNA 1: GCAGCTGCAGCTGCAGCT
# DNA 2: AGCTGCAGCTGCAGCTGC
# B3: (CAG)x7 probe (dsDNA)
# DNA 1: CAGCAGCAGCAGCAGCAGCAG
# DNA 2: CTGCTGCTGCTGCTGCTGCTG
# Columns and labels:
# Details in all cases: tags: N-terminal NLS PKKKRKV; TNT T7 expression from PCR product; label: DIG
# ZF6xHunt [1] = biological target: ZF6xHunt (Artificial); assay: EMSA; binds equally to (GCA-GCT)x3
# Sequence of ZF6xHunt (Artificial) (chain, as listed by the source): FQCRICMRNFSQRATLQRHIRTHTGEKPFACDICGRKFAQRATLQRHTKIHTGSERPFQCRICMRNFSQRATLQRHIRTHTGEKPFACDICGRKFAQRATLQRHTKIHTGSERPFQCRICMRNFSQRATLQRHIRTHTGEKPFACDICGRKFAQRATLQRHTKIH
# ZF6xHunt [2] = biological target: ZF6xHunt (Artificial); assay: EMSA; binds equally to (GCA)x6
# ZF6xHunt [3] = biological target: ZF6xHunt (Artificial); assay: EMSA; specific versus mutated sequences
binder,measurement,setting,value
B1,binding result,ZF6xHunt [1],binds
B2,binding result,ZF6xHunt [2],binds
B3,binding result,ZF6xHunt [3],binds
